For two substances, stoichiometry N results are on record in paper PMC8325310.

Assay [1] concerns the target NT*-Bri2 BRICHOS (human). Nature of the assay: SEC; IMAC-purified NT*-Bri2 BRICHOS concentrated to 3.4 mg/mL, Superdex 200 26/600, 20 mM NaPi pH 8.0 with 0.2 mM EDTA; four peaks resolved (monomer, dimer, tetramer, higher oligomers).
The target of assay [2] is recombinant human (rh) Bri2 BRICHOS (human). Nature of the assay: SEC; Bri2 BRICHOS species after thrombin cleavage and reverse IMAC, Superdex 200 26/600 (oligomer, tetramer, dimer) or Superdex 75 26/600 (monomer), 20 mM NaPi pH 8.0 with 0.2 mM EDTA.
The target is the same in assay [3]. Briefly: SDS-PAGE under reducing and non-reducing conditions; SEC-isolated rh Bri2 BRICHOS species analysed by SDS-PAGE, reducing and non-reducing.

Values joined by “and” are separate entries in the source; they are usually repeats but may differ in a detail not shown here. Equal values may be shown once.

Sequence of NT*-Bri2 BRICHOS (Q9Y287 132-236): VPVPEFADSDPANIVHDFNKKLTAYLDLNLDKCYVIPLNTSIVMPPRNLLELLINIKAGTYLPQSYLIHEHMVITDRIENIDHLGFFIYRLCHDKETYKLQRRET

With NT*-Bri2 BRICHOS (domain or fragment), the stoichiometry N in assay [1] was 2 and 4.
For “recombinant human (rh) Bri2 BRICHOS (domain or fragment)”, the stoichiometry N in assay [2] was 2 and 4; in assay [3], 6.
